# Measured values taken from paper PMC8954901, “The Family Keeps on Growing: Four Novel Fungal OYEs Characterized” (International Journal of Molecular Sciences, 2022).
# B1: AnOYE2 (Aspergillus niger CBS 513.88) (protein)
# chain: MCSKLFQPLQIGKTNLEHRVVMAPLTRFRADSQHVPLPMATTYYEQRASVPGTLLIAEATLISPSAGGVPHAPGVWSEEQVNGWKKITEAVHKKGSFIFCQLIAAGRAADPAQLHAEGGFMLHAPSPIPIEPGMPVPKELDEIEVQEIINDFAMAAKNAIRAGFDGVEIHGANGYLVDQFLQDVSNKRNDKWGGSIPNRARFGLEVAKAVADAIGADRLGFRLSPWNTWQSMKMVDPVPQFTYFVERLQQLGLAYLHVIESRVINNVDCEKEGSIKFLLDVWGKSAPVIVAGGYRPENVENALEEEYKDYKVAVAFGRHFIANPDLPFRIRHDIHLNPYDRESFYTPLQENGYTDYPFSAEFIKSKTKC
# B2: BfOYE4 (Botrytis cinerea B05.10) (protein)
# chain: MSTPTPHPQHGVPCGTSTPRPGLLNTPAPGVPFYTPLQSPPSGTALHLSPSTPKLFTPLKIRSLTLQNRIMLSPMCQYSASNGHFTPWHMAHLGGIISRGPGLSMVEATSVLPEGRITPEDSGLWLDSQGDKLKEVVQFAHSQGQLIGIQLSHAGRKASMVAPWLDRSAVATEEAGGWPTKVKGPSAIPYDEHHYKPSAMTLEDIQEFKDAWAASLKRALKAGFDVIEIHNAHGYLLHEFVSPVSNKRTDQYGGSFENRIRLTLEIVEITRKIIPESMPLFLRISATDWLDYEGFGEESWTVADSARLAGILADRGVDLMDVSSGANHPRQKITAGLGYQAPFAKEIKRVVGERMLVGTVGMIGSGRQAEGLLSGMGGERGVDEGEEEEGKGTELDLVIVARGFQKNPGLVWEWAEELGVRIMVAHQMRWGFRGKAGGH
# notes: N-terminal His6 tag, E. coli BL21(DE3), 421 residues, dimer in crystal, several oligomeric species in solution; cloning reported elsewhere
# How the values were obtained:
# [1] = biological target: AnOYE8 (Aspergillus niger CBS 513.88); assay: native gel or EMSA; BN-PAGE, NativePAGE 3 to 12% Bis-Tris gel, 12.5 ug of sample from each gel filtration peak, 150 V for 2 h; BSA and HSA for comparison of the MWs
# [2] = biological target: AnOYE8 (Aspergillus niger CBS 513.88); assay: SEC; analytical gel filtration, Superdex 200 10/300 GL, 150 ug purified protein, Tris-HCl pH 8.0 50 mM, NaCl 150 mM, 1 mL/min; apparent molecular weight from a calibration curve
# [3] = biological target: AnOYE8 (Aspergillus niger CBS 513.88); assay: crystal structure; N-terminal His6-tagged AnOYE8, 15 mg/mL in Tris-HCl pH 8.0 50 mM; PEG 5000 MME 18% w/v, MES pH 6.5 0.1 M, ammonium sulphate 0.2 M, 293 K; space group C121, four molecules per asymmetric unit
# AnOYE8 = biological target: T1, AnOYE8 (Aspergillus niger, UniProt A2QBV3); assay: X-ray crystal structure, […] Å; type: binding; details: active site, non-covalently bound; pH 6.5 crystals
# T1 construct: gene An02g01330
# T1 sequence (A2QBV3 1-421): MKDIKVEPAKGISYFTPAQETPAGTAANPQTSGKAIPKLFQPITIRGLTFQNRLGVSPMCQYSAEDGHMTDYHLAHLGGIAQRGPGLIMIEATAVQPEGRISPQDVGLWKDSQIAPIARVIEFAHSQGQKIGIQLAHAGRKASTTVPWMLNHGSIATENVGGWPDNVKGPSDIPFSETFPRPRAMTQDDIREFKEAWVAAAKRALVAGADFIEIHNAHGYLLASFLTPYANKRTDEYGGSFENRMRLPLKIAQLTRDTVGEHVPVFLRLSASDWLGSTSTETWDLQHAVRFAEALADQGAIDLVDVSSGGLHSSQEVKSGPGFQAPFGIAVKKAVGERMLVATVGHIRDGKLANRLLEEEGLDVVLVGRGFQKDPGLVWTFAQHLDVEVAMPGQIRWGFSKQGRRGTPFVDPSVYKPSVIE
# [4] = biological target: BfOYE1 (Botryotinia fuckeliana B05.10); assay: native gel or EMSA
# [5] = biological target: BfOYE1 (Botryotinia fuckeliana B05.10); assay: SEC; analytical gel filtration, Superdex 200 10/300 GL, 150 ug purified protein, Tris-HCl pH 8.0 50 mM, NaCl 150 mM, 1 mL/min; apparent molecular weight from a calibration curve
# purified protein [6] = substrate: NC(=O)C1=CN([C@@H]2O[C@H](COP(=O)(O)OP(=O)(O)OC[C@H]3O[C@@H](n4cnc5c(N)ncnc54)[C@H](OP(=O)(O)O)[C@@H]3O)[C@@H](O)[C@H]2O)C=CC1; assay: purified protein; type: biochemical, Aspergillus niger; details: maleimide 1 mM, Tris-HCl 50 mM pH 8.0, 25 °C, enzyme 20 nM
# purified protein [7] = substrate: O=C1C=CC(=O)N1; assay: purified protein; type: biochemical, Aspergillus niger; details: NADPH 100 µM, Tris-HCl 50 mM pH 8.0, 25 °C, enzyme 20 nM
# purified protein [8] = substrate: C=CC(=O)CCCCC; assay: purified protein; type: biochemical, Botrytis cinerea; details: NADPH 100 µM, Tris-HCl 50 mM pH 8.0, 25 °C, enzyme 200 nM
# purified protein [9] = substrate: CC1=CCCCC1=O; assay: purified protein; type: biochemical, Botrytis cinerea; details: NADPH 100 µM, Tris-HCl 50 mM pH 8.0, 25 °C, enzyme 200 nM
# purified protein [10] = substrate: NC(=O)C1=CN([C@@H]2O[C@H](COP(=O)(O)OP(=O)(O)OC[C@H]3O[C@@H](n4cnc5c(N)ncnc54)[C@H](OP(=O)(O)O)[C@@H]3O)[C@@H](O)[C@H]2O)C=CC1; assay: purified protein; type: biochemical, Botrytis cinerea; details: maleimide 1 mM, Tris-HCl 50 mM pH 8.0, 25 °C, enzyme 20 nM
# purified protein [11] = substrate: O=C1C=CC(=O)N1; assay: purified protein; type: biochemical, Botrytis cinerea; details: NADPH 100 µM, Tris-HCl 50 mM pH 8.0, 25 °C, enzyme 20 nM
# purified protein [12] = substrate: O=C1C=CCC1; assay: purified protein; type: biochemical, Botrytis cinerea; details: NADPH 100 µM, Tris-HCl 50 mM pH 8.0, 25 °C, enzyme 200 nM
# purified protein [13] = substrate: O=C1C=CCCC1; assay: purified protein; type: biochemical, Botrytis cinerea; details: NADPH 100 µM, Tris-HCl 50 mM pH 8.0, 25 °C, enzyme 200 nM
molecule,measurement,setting,value
AnOYE8 (enzyme),stoichiometry N,[1],2
same,stoichiometry N,[2],2
same,stoichiometry N,[3],2
Cc1cc2nc3c(=O)[nH]c(=O)nc-3n(C[C@H](O)[C@H](O)[C@H](O)COP(=O)(O)O)c2cc1C [FMN],"X-ray crystal structure, 2.8 Å",AnOYE8,AnOYE8 accommodated a non-covalently bound FMN cofactor molecule
BfOYE1 (enzyme),stoichiometry N,[4],2
same,stoichiometry N,[5],2
B1,Km,purified protein [6],37 ± 10 µM
same,kcat,purified protein [6],8 ± 0.4 s⁻¹
same,kcat/Km,purified protein [6],216000 M⁻¹ s⁻¹
same,Km,purified protein [7],10 ± 0 µM
same,kcat,purified protein [7],7.38 ± 0.66 s⁻¹
same,kcat/Km,purified protein [7],738000 M⁻¹ s⁻¹
B2,Km,purified protein [8],2720 ± 500 µM
same,kcat,purified protein [8],22.6 ± 1.14 s⁻¹
same,kcat/Km,purified protein [8],8300 M⁻¹ s⁻¹
same,Km,purified protein [9],1830 ± 180 µM
same,kcat,purified protein [9],0.56 ± 0.013 s⁻¹
same,kcat/Km,purified protein [9],300 M⁻¹ s⁻¹
same,Km,purified protein [10],130 ± 20 µM
same,kcat,purified protein [10],89.2 ± 3.37 s⁻¹
same,kcat/Km,purified protein [10],686000 M⁻¹ s⁻¹
same,Km,purified protein [11],70 ± 10 µM
same,kcat,purified protein [11],36.3 ± 1.12 s⁻¹
same,kcat/Km,purified protein [11],519000 M⁻¹ s⁻¹
same,Km,purified protein [12],1070 ± 120 µM
same,kcat,purified protein [12],1.06 ± 0.03 s⁻¹
same,kcat/Km,purified protein [12],1000 M⁻¹ s⁻¹
same,Km,purified protein [13],650 ± 90 µM
same,kcat,purified protein [13],2.57 ± 0.07 s⁻¹
same,kcat/Km,purified protein [13],3900 M⁻¹ s⁻¹
